Assays:
HLA-B*15:42 = experiment: IEDB peptide-MHC binding, purified MHC/competitive/fluorescence; filed as Kd, often an IC50 or EC50 that approximates it; ≥ and ≤ were set here for values at or beyond the usual limits of such assays; conditions: source organism: Giardia lamblia ATCC 50803
HLA-B*73:01 = experiment: as above; conditions: source organism: Giardia lamblia ATCC 50803
HLA-C*14:02 = experiment: as above; conditions: source organism: Giardia lamblia ATCC 50803
HLA-B*83:01 = experiment: as above; conditions: source organism: Giardia lamblia ATCC 50803
HLA-B*45:06 = experiment: as above; conditions: source organism: Giardia lamblia ATCC 50803
HLA-A*68:23 = experiment: as above; conditions: source organism: Giardia lamblia ATCC 50803
HLA-C*04:01 [1] = experiment: as above; conditions: source organism: Giardia lamblia ATCC 50803
HLA-C*06:02 = experiment: IEDB peptide-MHC binding, purified MHC/direct/fluorescence; filed as Kd, often an IC50 or EC50 that approximates it; ≥ and ≤ were set here for values at or beyond the usual limits of such assays; conditions: source organism: Giardia lamblia ATCC 50803
HLA-C*05:01 = experiment: as above; conditions: source organism: Giardia lamblia ATCC 50803
HLA-B*15:17 = experiment: as above; conditions: source organism: Escherichia coli O157:H7
HLA-B*57:01 [2] = experiment: as above; conditions: source organism: Escherichia coli O157:H7
HLA-C*04:01 [3] = experiment: as above; conditions: source organism: Escherichia coli O139:H28 str. E24377A
HLA-B*58:01 [4] = experiment: as above; conditions: source organism: Escherichia coli O157:H7
HLA-B*40:01 = experiment: IEDB peptide-MHC binding, purified MHC/competitive/radioactivity; ≥ and ≤ were set here for values at or beyond the usual limits of such assays; conditions: source organism: Human papillomavirus 16
HLA-B*44:03 = experiment: IEDB peptide-MHC binding, purified MHC/competitive/fluorescence; ≥ and ≤ were set here for values at or beyond the usual limits of such assays
HLA-A*02:01 [5] = experiment: as above
HLA-B*07:02 = experiment: as above
HLA-A*01:01 = experiment: as above
HLA-B*40:02 = experiment: as above
HLA-A*11:01 = experiment: as above
HLA-B*14:02 = experiment: as above
HLA-A*31:01 = experiment: as above
HLA-B*51:01 [6] = experiment: as above
HLA-A*68:02 = experiment: as above
HLA-A*24:02 [7] = experiment: as above
HLA-B*08:01 = experiment: as above
HLA-A*03:01 [8] = experiment: as above
HLA-B*53:01 = experiment: as above
HLA-B*18:01 = experiment: as above
HLA-A*25:01 [9] = experiment: as above
HLA-B*35:01 = experiment: as above
HLA-A*29:02 = experiment: as above
HLA-B*58:01 [10] = experiment: as above
HLA-B*37:01 = experiment: as above
HLA-B*46:01 = experiment: IEDB peptide-MHC binding, purified MHC/competitive/fluorescence; filed as Kd, often an IC50 or EC50 that approximates it; ≥ and ≤ were set here for values at or beyond the usual limits of such assays; conditions: source organism: Vibrio cholerae 2740-80
HLA-A*02:01 [11] = experiment: as above; conditions: source organism: Vibrio cholerae 2740-80
HLA-A*02:12 = experiment: as above; conditions: source organism: Vibrio cholerae 2740-80
HLA-A*02:16 = experiment: as above; conditions: source organism: Vibrio cholerae 2740-80
HLA-A*26:01 = experiment: as above; conditions: source organism: Vibrio cholerae 2740-80
HLA-B*51:01 [12] = experiment: as above; conditions: source organism: Vibrio cholerae 2740-80
HLA-B*57:01 [13] = experiment: as above; conditions: source organism: Vibrio cholerae 2740-80
HLA-A*24:03 = experiment: as above; conditions: source organism: Vibrio cholerae 2740-80
HLA-A*03:01 [14] = experiment: as above; conditions: source organism: Vibrio cholerae 2740-80
HLA-A*25:01 [15] = experiment: as above; conditions: source organism: Vibrio cholerae 2740-80
HLA-A*02:03 = experiment: as above; conditions: source organism: Vibrio cholerae 2740-80
HLA-B*27:03 = experiment: as above; conditions: source organism: Vibrio cholerae 2740-80
HLA-A*02:19 = experiment: as above; conditions: source organism: Vibrio cholerae 2740-80
HLA-A*24:02 [16] = experiment: IEDB peptide-MHC binding, purified MHC/competitive/radioactivity; ≥ and ≤ were set here for values at or beyond the usual limits of such assays; conditions: source organism: Homo sapiens
[17] = source organism: Ateles geoffroyi

In the case of YPFHIFYPV, the Kd (HLA-B*15:42) is reported as no less than 5 µM, the Kd (HLA-B*73:01) is reported as 1.33 µM and the Kd (HLA-C*14:02) is reported as 0.189 µM. For the same sequence, the Kd (HLA-B*83:01) was 0.137 µM, the Kd (HLA-B*45:06) was 4.7 µM and the Kd (HLA-A*68:23) was 0.0431 µM. It also gave a Kd (HLA-C*04:01 [1]) of no less than 5 µM, a Kd (HLA-C*06:02) of no less than 20 µM and a Kd (HLA-C*05:01) of no less than 20 µM.
Work on YMWECPDFF yielded a Kd (HLA-B*15:17) of 0.157 µM, a Kd (HLA-B*57:01 [2]) of 1.44 µM and a Kd (HLA-C*04:01 [3]) of 0.137 µM. The Kd (HLA-B*58:01 [4]) was no less than 5 µM.
Work on SEYRHYCYSL yielded an IC50 (HLA-B*40:01) of 0.00054 µM.
Sequence ILNRETLLDFV has an IC50 (HLA-B*44:03; source organism: Homo sapiens) of no less than 20 µM, an IC50 (HLA-A*02:01 [5]; source organism: Homo sapiens) of 0.0939 µM and an IC50 (HLA-B*07:02; source organism: Homo sapiens) of no less than 20 µM. It also gave an IC50 (HLA-A*01:01; source organism: Homo sapiens) of no less than 20 µM, an IC50 (HLA-B*40:02; source organism: Homo sapiens) of 0.995 µM and an IC50 (HLA-A*11:01; source organism: Homo sapiens) of no less than 20 µM. The IC50 (HLA-B*14:02; source organism: Homo sapiens) was no less than 20 µM, the IC50 (HLA-A*31:01; source organism: Homo sapiens) was no less than 20 µM and the IC50 (HLA-B*51:01 [6]; source organism: Homo sapiens) was no less than 20 µM. The IC50 (HLA-A*68:02; source organism: Homo sapiens) was no less than 20 µM, the IC50 (HLA-A*24:02 [7]; source organism: Homo sapiens) was no less than 20 µM and the IC50 (HLA-B*08:01; source organism: Homo sapiens) was no less than 20 µM. The IC50 (HLA-A*03:01 [8]; source organism: Homo sapiens) was no less than 20 µM, the IC50 (HLA-B*53:01; source organism: Homo sapiens) was no less than 20 µM and the IC50 (HLA-B*18:01; source organism: Homo sapiens) was no less than 20 µM. It also gave an IC50 (HLA-A*25:01 [9]; source organism: Homo sapiens) of no less than 20 µM, an IC50 (HLA-B*35:01; source organism: Homo sapiens) of no less than 20 µM and an IC50 (HLA-A*29:02; source organism: Homo sapiens) of 13.2 µM. For the same sequence, the IC50 (HLA-B*58:01 [10]; source organism: Homo sapiens) was no less than 20 µM and the IC50 (HLA-B*37:01; source organism: Homo sapiens) was no less than 20 µM.
HSYLWDHQM was tested, and the Kd (HLA-B*46:01) was no less than 20 µM, the Kd (HLA-A*02:01 [11]) was no less than 20 µM and the Kd (HLA-A*02:12) was no less than 20 µM. The Kd (HLA-A*02:16) was no less than 20 µM, the Kd (HLA-A*26:01) was no less than 20 µM and the Kd (HLA-B*51:01 [12]) was no less than 20 µM. For the same sequence, the Kd (HLA-B*57:01 [13]) was 0.0547 µM, the Kd (HLA-A*24:03) was no less than 20 µM and the Kd (HLA-A*03:01 [14]) was no less than 20 µM. The Kd (HLA-A*25:01 [15]) was no less than 20 µM, the Kd (HLA-A*02:03) was no less than 20 µM and the Kd (HLA-B*27:03) was no less than 20 µM. The Kd (HLA-A*02:19) was no less than 20 µM.
For LPADPASVL, the IC50 (HLA-B*44:03; [17]) was no less than 20 µM, the IC50 (HLA-A*02:01 [5]; [17]) was no less than 20 µM and the IC50 (HLA-B*07:02; [17]) was 0.134 µM. The IC50 (HLA-A*01:01; [17]) was no less than 20 µM, the IC50 (HLA-B*40:02; [17]) was 3.3 µM and the IC50 (HLA-A*11:01; [17]) was no less than 20 µM. It also gave an IC50 (HLA-B*14:02; [17]) of 14.5 µM, an IC50 (HLA-A*31:01; [17]) of no less than 20 µM and an IC50 (HLA-B*51:01 [6]; [17]) of 1.62 µM. For the same sequence, the IC50 (HLA-A*68:02; [17]) was 0.818 µM, the IC50 (HLA-A*24:02 [7]; [17]) was no less than 20 µM and the IC50 (HLA-B*08:01; [17]) was no less than 20 µM. For the same sequence, the IC50 (HLA-A*03:01 [8]; [17]) was no less than 20 µM, the IC50 (HLA-B*53:01; [17]) was 1.61 µM and the IC50 (HLA-B*18:01; [17]) was no less than 20 µM. For the same sequence, the IC50 (HLA-A*25:01 [9]; [17]) was no less than 20 µM, the IC50 (HLA-B*35:01; [17]) was 0.006 µM and the IC50 (HLA-A*29:02; [17]) was 1.09 µM. For the same sequence, the IC50 (HLA-B*58:01 [10]; [17]) was no less than 20 µM and the IC50 (HLA-B*37:01; [17]) was no less than 20 µM.
In the case of TYSVSFDSL, the IC50 (HLA-A*24:02 [16]) is reported as 0.197 µM.

Reference: the Immune Epitope Database (IEDB)
